Earlier results, collected in paper PMC9304195.

Biological target: UGGT (Homo sapiens) (UniProt Q9NYU2)
Sequence (Q9NYU2 43-1555): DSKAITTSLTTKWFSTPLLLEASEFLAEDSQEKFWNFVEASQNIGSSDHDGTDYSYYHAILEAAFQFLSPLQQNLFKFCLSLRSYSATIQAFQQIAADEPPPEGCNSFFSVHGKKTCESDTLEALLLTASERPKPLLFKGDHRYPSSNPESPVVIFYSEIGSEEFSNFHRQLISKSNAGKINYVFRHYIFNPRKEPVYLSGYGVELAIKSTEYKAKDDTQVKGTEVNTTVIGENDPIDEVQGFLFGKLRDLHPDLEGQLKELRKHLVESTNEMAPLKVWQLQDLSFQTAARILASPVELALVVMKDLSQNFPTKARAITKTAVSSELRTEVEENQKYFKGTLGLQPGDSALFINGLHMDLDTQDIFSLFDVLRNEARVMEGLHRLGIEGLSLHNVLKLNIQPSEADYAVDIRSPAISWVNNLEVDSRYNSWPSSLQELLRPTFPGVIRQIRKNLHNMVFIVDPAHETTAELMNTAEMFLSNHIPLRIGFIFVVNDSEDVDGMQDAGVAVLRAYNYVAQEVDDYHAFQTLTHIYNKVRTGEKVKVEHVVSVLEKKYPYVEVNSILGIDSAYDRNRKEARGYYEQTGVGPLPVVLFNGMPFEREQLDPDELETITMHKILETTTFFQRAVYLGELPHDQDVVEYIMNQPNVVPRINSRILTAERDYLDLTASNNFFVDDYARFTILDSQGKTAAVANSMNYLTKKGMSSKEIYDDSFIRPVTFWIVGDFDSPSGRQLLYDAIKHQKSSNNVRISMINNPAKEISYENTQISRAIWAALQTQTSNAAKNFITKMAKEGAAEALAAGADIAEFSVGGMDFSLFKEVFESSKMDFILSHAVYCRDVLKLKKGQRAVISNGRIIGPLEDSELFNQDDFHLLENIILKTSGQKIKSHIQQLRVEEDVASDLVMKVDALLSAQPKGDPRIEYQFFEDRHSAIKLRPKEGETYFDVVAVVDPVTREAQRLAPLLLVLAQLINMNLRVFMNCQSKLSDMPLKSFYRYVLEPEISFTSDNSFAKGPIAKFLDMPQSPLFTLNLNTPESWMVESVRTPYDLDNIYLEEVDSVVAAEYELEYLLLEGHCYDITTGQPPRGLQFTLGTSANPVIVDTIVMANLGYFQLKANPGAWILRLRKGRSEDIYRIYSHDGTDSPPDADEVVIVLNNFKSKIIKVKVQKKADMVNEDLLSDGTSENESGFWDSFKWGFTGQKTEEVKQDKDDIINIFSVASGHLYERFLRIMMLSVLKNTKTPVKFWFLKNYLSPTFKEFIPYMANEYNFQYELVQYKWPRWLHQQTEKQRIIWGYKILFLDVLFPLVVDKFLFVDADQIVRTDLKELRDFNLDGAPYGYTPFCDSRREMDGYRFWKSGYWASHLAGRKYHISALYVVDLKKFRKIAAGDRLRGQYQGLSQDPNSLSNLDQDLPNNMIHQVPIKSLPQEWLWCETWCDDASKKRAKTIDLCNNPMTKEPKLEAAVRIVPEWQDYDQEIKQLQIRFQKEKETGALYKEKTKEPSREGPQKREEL

Sequence of SELENOF (O60613 32-165): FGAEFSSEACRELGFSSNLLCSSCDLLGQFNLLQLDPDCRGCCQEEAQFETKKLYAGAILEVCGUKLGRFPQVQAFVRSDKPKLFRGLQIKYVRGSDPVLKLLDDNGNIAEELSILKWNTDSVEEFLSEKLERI

Kd: 20 nM
Substance: SELENOF (from UniProt O60613)
